Numbering of substitutions follows the chain as printed. Like-named read-outs stand apart in the source and are kept apart here.
Assays:
Human IL-18 [1] = target: T1, Human IL-18 (human, UniProt Q14116 37-193); assay: SPR (Biacore), antibody captured on Protein A/G, cytokine as analyte, 25 C, 1:1 fit, n=1
T1 construct: Recombinant, made in-house; In the BLI assay the loaded cytokine was captured on anti-Penta His sensors, so a His tag is implied but not described; also called recombinant human IL-18; interleukin 18
T1 sequence: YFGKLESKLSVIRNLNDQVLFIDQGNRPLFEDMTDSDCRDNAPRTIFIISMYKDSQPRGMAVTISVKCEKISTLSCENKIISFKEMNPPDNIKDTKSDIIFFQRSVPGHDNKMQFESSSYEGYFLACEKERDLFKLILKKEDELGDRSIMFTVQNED
Experimental: (§1) A heterodimeric bsAb, alongside anti-IL-18 and anti-IL-23 common light chain control bispecific antibodies, were assessed for binding to human and cyno IL-18 and IL-23, using the Biacore 8K and T200 (Cytiva) surface plasmon resonance (SPR) instruments. All reagents were generated recombinantly in-house with the exception of Rhesus monkey IL-18 which was purchased from R&D systems (Cat #2548-RM-025/CF). Rhesus and cynomolgus monkey amino acid sequences are identical. Therefore, the protein will be referred to as cynomolgus monkey IL-18.
(§2) Heterodimeric bsAb, anti-IL-18 and anti-IL-23 common light chain bispecific control molecules were assessed for binding to recombinant human and cynomolgus monkey IL-18 and IL-23 using the Biacore 8K and T200 (Cytiva) SPR instruments. The antibodies were captured onto Protein A/G, which was immobilised onto flow cell 2 of 8 channels (Biacore 8K) or flow cells 2, 3 and 4 (Biacore T200) of a CM5 series S sensor chip by primary amine coupling. The IL-18 or IL-23 analytes were passed over the captured antibodies at varying concentrations between 0.04-25 nM. The association phase was for 240 seconds at 30 μl/min, followed by a dissociation step of up to 1200 seconds. A 0 nM (i.e., buffer alone) injection was used to double reference the binding curves. Regeneration of the chip surface between cycles was carried out using 50 mM NaOH. The assay was run at 25° C. in HBS-EP⁺ buffer. Biacore 8K control software version 3.0 was used to run the experiment. Data was analysed using Biacore 8K Insight evaluation software version 3.0. Biacore T200 control software version 1.0 was used to run the experiment. Data was analysed using Biacore T200 evaluation software version 2.0. Affinities and kinetics were determined using the 1:1 kinetic fit inherent to the software where possible. All affinity values generated using both instruments were combined to determine geometric mean values.

Human IL-18 [2] = target: T1, Human IL-18; assay: cell-based or functional assay
Human IL-23 [3] = target: T2, Human IL-23 (human, UniProt Q9NPF7 20-189; P29460 23-328); assay: SPR (Biacore), antibody captured on Protein A/G, cytokine as analyte, 25 C
T2 construct: Disulphide-linked p19/p40 heterodimer, recombinant, made in-house; also called recombinant human IL-23; rhIL-23
T2 sequence 1: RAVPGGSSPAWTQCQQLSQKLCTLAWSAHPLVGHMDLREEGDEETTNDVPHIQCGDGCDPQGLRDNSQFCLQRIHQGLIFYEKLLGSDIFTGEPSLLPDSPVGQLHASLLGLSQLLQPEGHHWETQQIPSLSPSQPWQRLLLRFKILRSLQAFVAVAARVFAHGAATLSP
T2 sequence 2: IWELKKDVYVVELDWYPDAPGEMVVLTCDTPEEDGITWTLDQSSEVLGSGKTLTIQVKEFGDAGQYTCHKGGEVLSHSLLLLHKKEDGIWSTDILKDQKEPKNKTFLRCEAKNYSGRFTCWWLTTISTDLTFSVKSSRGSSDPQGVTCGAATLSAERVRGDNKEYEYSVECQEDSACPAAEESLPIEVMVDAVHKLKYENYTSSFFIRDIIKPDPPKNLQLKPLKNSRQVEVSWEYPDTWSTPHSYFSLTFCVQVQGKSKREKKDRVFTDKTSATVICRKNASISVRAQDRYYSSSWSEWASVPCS
Experimental: as §1, §2

Human IL-18 [4] = target: T1, Human IL-18; assay: cell-based or functional assay; remark: listed apart in the source
Human IL-18 [5] = target: T1, Human IL-18; assay: SPR (Biacore 8K/T200), antibody captured on Protein A/G, cytokine as analyte, 25 C, geometric mean of n=3-5
Experimental: as §1, §2

Cynomolgus monkey IL-18 [6] = target: T3, Cynomolgus monkey IL-18 (Rhesus monkey (identical to cynomolgus …, UniProt Q9BGI5 37-193)); assay: as above
T3 construct: Bought protein; also called Cyno IL-18; Cynomolgus IL-18
T3 sequence: T1 sequence with V11I, S50N, T63A, K79R, F134Y, E141K
Experimental: as §1, §2

Human IL-18 [7] = target: T1, Human IL-18; assay: cell-based or functional assay; remark: listed apart in the source
Cynomolgus monkey IL-18 [8] = target: T3, Cynomolgus monkey IL-18; assay: cell-based or functional assay
Human IL-23 [9] = target: T2, Human IL-23; assay: cell-based or functional assay
Human IL-23 [10] = target: T2, Human IL-23; assay: cell-based or functional assay; remark: listed apart in the source
Human IL-23 [11] = target: T2, Human IL-23; assay: SPR (Biacore 8K/T200), antibody captured on Protein A/G, cytokine as analyte, 25 C, geometric mean of n=3-5
Experimental: as §1, §2

Cynomolgus monkey IL-23 = target: T4, Cynomolgus monkey IL-23 (cynomolgus monkey); assay: as above
T4 construct: also called Cyno IL-23
Experimental: as §1, §2

Human IL-23 [12] = target: T2, Human IL-23; assay: cell-based or functional assay; remark: listed apart in the source

B1: IL-18 control 5 (antibody, V domains shown)
VH: QVQLVQSGAEVKKPGASVKVSCKVSGEISTGYYFHWVRQAPGKGLEWMGRIDPEDDSTKYAERFKDRVTMTEDTSTDTAYMELSSLRSEDTAVYYCTTWRIYRDSSGRPFYVMDAWGQGTLVTVSS
VL: DIQMTQSPSSVSASVGDRVTITCLASEDIYTYLTWYQQKPGKAPKLLIYGANKLQDGVPSRFSGSGSGTDYTLTISSLQPEDFATYYCLQGSKFPLTFGQGTKLEIK
notes: Anti-IL-18 mAb plus Het-mAb Fc mutations of Heterodimeric bsAbs 1-4 and silencing (LAGA) mutations
Human IL-18 [1]
  Kd: < 0.01 nM
Human IL-18 [2]
  IC50 (pM, Mean), neutralisation of human IL-18-induced IFNγ secretion by KG-1 cells: 52.5 pM
  pIC50 (GeoMean), neutralisation of human IL-18-induced IFNγ secretion by KG-1 cells: 10.3
Human IL-23 [3]
  binding result: no binding (tested: 0.04-25 nM analyte)

B2: IL-18 control 1 (antibody, V domains shown)
VH: B1 VH
VL: B1 VL
notes: Anti-IL-18 mAb plus Het-mAb Fc mutations of Heterodimeric bsAbs 1-4, silencing (LAGA) and half-life extending (YTE) mutations; also called anti-IL-18 control 1
Human IL-18 [4]
  IC50 (pM, Mean), neutralisation of human IL-18-induced IFNγ secretion by KG-1 cells: 52.5 pM
  pIC50 (GeoMean), neutralisation of human IL-18-induced IFNγ secretion by KG-1 cells: 10.3
Human IL-18 [5]
  Kd: 0.067 nM
Cynomolgus monkey IL-18 [6]
  Kd: 0.064 nM
Human IL-18 [7]
  IC50 nM, inhibition of LPS + IL12-induced IFN-γ in human whole blood: 5.5 nM
  pIC50, inhibition of LPS + IL12-induced IFN-γ in human whole blood: 8.3
Human IL-23 [3]
  binding result: no binding (tested: 0.04-25 nM analyte)
Cynomolgus monkey IL-18 [8]
  IC50 (pM, Mean), neutralisation of cynomolgus IL-18-induced IFNγ secretion by KG-1 cells: 53.7 pM
  pIC50 (GeoMean), neutralisation of cynomolgus IL-18-induced IFNγ secretion by KG-1 cells: 10.3

B3: Heterodimeric bsAb 4 (bispecific antibody, human IgG1, kappa)
heavy 1: QVQLVQSGAEVKKPGSSVKVSCKASGYTFTDQTIHWMRQAPGQGLEWIGYIYPRDDSPKYNENFKGKVTITADKSTSTAYMELSSLRSEDTAVYYCAIPDRSGYAWFIYWGQGTLVTVSSASTKGPSVFPLAPSSKSTSGGTAALGCRVKDYFPEPVTVSWNSGALTSGVHTFPAVLQSSGLYSLSSVVTVPSSSLGTQTYICNVNHKPSNTKVDKKVEPKSCDKTHTCPPCPAPELAGAPSVFLFPPKPKDTLYITREPEVTCVVVDVSHEDPEVKFNWYVDGVEVHNAKTKPREEQYNSTYRVVSVLTVLHQDWLNGKEYKCKVSNKALPAPIEKTISKAKGQPREPQVYVYPPSRDELTKNQVSLTCLVKGFYPSDIAVEWESNGQPENNYKTTPPVLDSDGSFALVSKLTVDKSRWQQGNVFSCSVMHEALHNHYTQKSLSLSPGK
light 1: DIQMTQSPSSLSASVGDRVTITCKASRDVAIAVAWYQQKPGKVPKLLIYWASTRHTGVPSRFSGSGSRTDFTLTISSLQPEDVADYFCHQYSSYPFTFGSGTKLEIKRTVAAPSVFIFPPSDEELKSGTASVECLLNNFYPREAKVQWKVDNALQSGNSQESVTEQDSKDSTYSLSSTLTLSKADYEKHKVYACEVTHQGLSSPVTKSFNRGEC
heavy 2: QVQLVQSGAEVKKPGASVKVSCKVSGEISTGYYFHWVRQAPGKGLEWMGRIDPEDDSTKYAERFKDRVTMTEDTSTDTAYMELSSLRSEDTAVYYCTTWRIYRDSSGRPFYVMDAWGQGTLVTVSSASTKGPSVFPLAPSSKSTSGGTAALGCEVTDYFPEPVTVSWNSGALTSGVHTFPAVLESSGLYSLSSVVTVPSSSLGTQTYICNVNHKPSNTKVDKKVEPKSCDKTHTCPPCPAPELAGAPSVFLFPPKPKDTLYITREPEVTCVVVDVSHEDPEVKFNWYVDGVEVHNAKTKPREEQYNSTYRVVSVLTVLHQDWLNGKEYKCKVSNKALPAPIEKTISKAKGQPREPQVYVLPPSRDELTKNQVSLLCLVKGFYPSDIAVEWESNGQPENNYLTWPPVLDSDGSFFLYSKLTVDKSRWQQGNVFSCSVMHEALHNHYTQKSLSLSPGK
light 2: DIQMTQSPSSVSASVGDRVTITCLASEDIYTYLTWYQQKPGKAPKLLIYGANKLQDGVPSRFSGSGSGTDYTLTISSLQPEDFATYYCLQGSKFPLTFGQGTKLEIKRTVAAPSVFIFPPSDERLKSGTASVVCLLNNFYPREAKVQWKVDNALQSGNSQESVTEQDSKDSTYSLSSRLTLSKADYEKHKVYACEVTHQGLSSPVTKSFNRGEC
notes: Het-mAb format: anti-IL-23 mAb (risankizumab) on ZA and anti-IL-18 mAb on ZB, with Fc heterodimerisation, silencing and half-life extending mutations; Stably expressed in CHO cells; also called anti-IL-23xIL-18 HETmAb
Human IL-23 [9]
  Fold change (from anti-IL-23, IL-23 control 1) of IC50, IL-23-induced pSTAT3 in T cells of human whole blood: 2.42 fold
  IC50, inhibition of IL-23-induced pSTAT3 in T cells of human whole blood: 395 pM
  pIC50, inhibition of IL-23-induced pSTAT3 in T cells of human whole blood: 9.4
Human IL-23 [10]
  Fold change (from anti-IL-23, IL-23 control 1) of IC50, IL-23-induced mouse IL-17A in mouse splenocytes: 2.67 fold
  IC50 pM, inhibition of human IL-23-induced mouse IL-17A secretion in mouse splenocytes: 111 pM
  pIC50 (M), inhibition of human IL-23-induced mouse IL-17A secretion in mouse splenocytes: 10
Human IL-18 [4]
  IC50 (pM, Mean), neutralisation of human IL-18-induced IFNγ secretion by KG-1 cells: 115 pM
  pIC50 (GeoMean), neutralisation of human IL-18-induced IFNγ secretion by KG-1 cells: 9.94
Human IL-23 [11]
  Kd: 0.297 nM
Cynomolgus monkey IL-23
  Kd: 0.162 nM
Human IL-18 [5]
  Kd: 0.035 nM
Cynomolgus monkey IL-18 [6]
  Kd: 0.068 nM
Human IL-18 [7]
  Fold change (from IL-18 control 1) of IC50, LPS + IL12-induced IFN-γ in human whole blood: 1.9 fold
  IC50 nM, inhibition of LPS + IL12-induced IFN-γ in human whole blood: 10.5 nM
  pIC50, inhibition of LPS + IL12-induced IFN-γ in human whole blood: 8
Human IL-23 [12]
  IC50 pM (Geomean), neutralisation of human IL-23-induced pSTAT3 in DB cells (MSD): 58.9 pM
  pIC50 (Geomean), neutralisation of human IL-23-induced pSTAT3 in DB cells (MSD): 10.2
Cynomolgus monkey IL-18 [8]
  IC50 (pM, Mean), neutralisation of cynomolgus IL-18-induced IFNγ secretion by KG-1 cells: 97.7 pM
  pIC50 (GeoMean), neutralisation of cynomolgus IL-18-induced IFNγ secretion by KG-1 cells: 10

Source: patent publication US20260226152A1 (GlaxoSmithKline, published 2026)
